Here are results for eight compounds from patent US8580497B2, “Methods for detection of the oncogenic T1796A B-Raf mutation” (The Wellcome Trust, priority 2001, dated 2013).

A value given as a limit tells only on which side of the number the result lay.

The test system of one series is ERK in WM266.4 cells. Briefly: ERK activity, Western blot with ppERK antibody. In kind it is cell-based, human. The settings on record: compound at 10 μM. As for the experimental part: FIG. 3B. Inhibition of ERK in melanoma cell lines using pharmacological reagents. WM266.4 or A375P cells were treated with 10 μM U0126, 10 μM BAY 43-9006 or DMSO as a control. Equivalent amounts of cellular proteins were resolved on SDS-gels and the levels of active ERK were determined using the ppERK antibody.
FIG. 6. Ablation of BRAF, but not CRAF blocks ERK activity in melanoma cells. WM-266.4 or Colo 829 cells were treated with a BRAF specific siRNA probe (BRAF), or the scrambled control (sBRAF), or a CRAF specific probe (CRAF), or its scrambled control (sCRAF), or oligofectamine (oligo) or left untreated (control) as indicated. The cells were incubated for the times indicated, and the Colo 829 cells were treated for 24 hours. The levels of ERK activity in equivalent amounts of cell extract was determined by Western blotting with the ppERK antibody.
In order to validate BRAF as a target in cancer, it is first tested whether the growth of cells that express activated, mutant forms of BRAF required the RAF-MEK-ERK signaling pathway for growth. To this end, melanoma and colorectal cell lines that harbour mutations in the BRAF gene are treated with pharmacological agents that block signaling through this pathway. Two compounds are tested. One is the compound U0126, which is a MEK inhibitor and which therefore uncouples RAF-ERK signaling in cells (Sebolt-Leopold et al., 1999). […]
On the technique in general: A western blot detects proteins with antibodies after separation by electrophoresis.

A further series has as its system ERK in SK-MEL-28. The settings on record: SK-MEL-28, melanoma, B-Raf V599E. An excerpt: (§1) The second approach is to examine the effects of the compound U0126, an inhibitor of MEK1/2, the only known substrates for B-Raf.
Another series concerns WM-266-4/WM-115. The conditions noted are these: WM-266-4/WM-115, melanoma, B-Raf V599D.
Excerpt: as §1

The subject of another series is ERK in WM-266-4/WM-115. The settings on record: WM-266-4/WM-115, melanoma, B-Raf V599D.
Excerpt: as §1

Another series concerns ERK in Mawi. The conditions noted are these: colorectal, Ras wt, B-Raf V599E.
Excerpt: as §1

For another series, the system named is SK-MEL-28. The settings on record: SK-MEL-28, melanoma, B-Raf V599E.
Excerpt: as §1

The target of another series is cellular Ras (human). Briefly: cell-based or functional assay.

On to `CNC(=O)c1cc(Oc2ccc(NC(=O)Nc3ccc(Cl)c(C(F)(F)F)c3)cc2)ccn1` [BAY 43-9006], for which the “ERK activity (ppERK Western blot)” value in the series on ERK in WM266.4 cells is on record as “strongly suppressed”.

In the case of `N#CC(=C(/N)Sc1ccccc1N)/C(C#N)=C(\N)Sc1ccccc1N` [U0126], the “UO/ ERK-inhib” value in the series with ERK in SK-MEL-28, in the series on ERK in WM-266-4/WM-115 and with ERK in Mawi was more than 90% throughout. Besides, the “U0 inhibit S” value with WM-266-4/WM-115 is more than 99%; in the series with SK-MEL-28, 98%. Moreover, the “ERK activity (ppERK Western blot)” value in the series on ERK in WM266.4 cells is given as “strongly suppressed”.

For the compound G463V B-Raf (myc-epitope tagged), the “^V12Ras stimulated kinase activity of B-Raf (immunoprecipitation kinase cascade assay, GST-MEK, GST-ERK and MBP as sequential substrates)” value (“^V12Ras stimulated kinase activity” below) in the series with oncogenic Ras (V12Ras) is listed as “All five mutants are stimulated by oncogenic Ras (^V12Ras). However, the fold activation for each of the mutants is reduced compared with wild-type B-Raf”.

For G468A B-Raf (myc-epitope tagged), in the series on oncogenic Ras (V12Ras), the “^V12Ras stimulated kinase activity” value is “All five mutants are stimulated by oncogenic Ras (^V12Ras). However, the fold activation for each of the mutants is reduced compared with wild-type B-Raf”.

For the compound G595R B-Raf (myc-epitope tagged), in the series with oncogenic Ras (V12Ras), the “^V12Ras stimulated kinase activity” value is given as “^G595RB-Raf is also stimulated by ^V12Ras, but the activation was very weak, probably due to the low starting levels”.

As to L596V B-Raf (myc-epitope tagged), the “^V12Ras stimulated kinase activity” value in the series with oncogenic Ras (V12Ras) was “All five mutants are stimulated by oncogenic Ras (^V12Ras). However, the fold activation for each of the mutants is reduced compared with wild-type B-Raf”.

As for V599E B-Raf (myc-epitope tagged), the “^V12Ras stimulated kinase activity” value in the series on oncogenic Ras (V12Ras) was “the fold activation for each of the mutants is reduced compared with wild-type B-Raf (See FIG. 1A, B) and is particularly small in the case of ^V599EB-Raf”.

In the series with cellular Ras (human), monoclonal antibody Y13-259 returned a Y13-259 S-phase inhibition (percentage of cells that do not incorporate BrdU) after micro-injection; A2058 melanoma cells, Ras status blank, B-Raf V599E of 0%; a Y13-259 S-phase inhibition (percentage of cells that do not incorporate BrdU) after micro-injection; CaCO2 colorectal cells, Ras wt, B-Raf wt of 60%; a Y13-259 S-phase inhibition (percentage of cells that do not incorporate BrdU) after micro-injection; DLD1 colorectal cells, Ras K13Asp/wt, B-Raf wt of 40%; a Y13-259 S-phase inhibition (percentage of cells that do not incorporate BrdU) after micro-injection; HCT-116 colorectal cells, Ras K13 Asp, B-Raf wt of 95%. In the series with cellular Ras (human), this compound had a Y13-259 S-phase inhibition (percentage of cells that do not incorporate BrdU) after micro-injection; HMV11-Riken melanoma cells, Ras status blank, B-Raf wt of 100%; a Y13-259 S-phase inhibition (percentage of cells that do not incorporate BrdU) after micro-injection; HT29 colorectal cells, Ras wt, B-Raf V599E of 15%; a Y13-259 S-phase inhibition (percentage of cells that do not incorporate BrdU) after micro-injection; JW2 colorectal cells, Ras K12, B-Raf wt of 79%; a Y13-259 S-phase inhibition (percentage of cells that do not incorporate BrdU) after micro-injection; LS174T colorectal cells, Ras K12Asp/wt, B-Raf wt of 84%. In addition, in the series with cellular Ras (human), the Y13-259 S-phase inhibition (percentage of cells that do not incorporate BrdU) after micro-injection; LS411N colorectal cells, Ras status blank, B-Raf V599E (first value) was 0%; the Y13-259 S-phase inhibition (percentage of cells that do not incorporate BrdU) after micro-injection; LS411N colorectal cells, Ras status blank, B-Raf V599E (second value) is 0%; the Y13-259 S-phase inhibition (percentage of cells that do not incorporate BrdU) after micro-injection; Malme melanoma cells, Ras status blank, B-Raf V599E turned out to be 0%; the Y13-259 S-phase inhibition (percentage of cells that do not incorporate BrdU) after micro-injection; Mawi colorectal cells, Ras wt, B-Raf V599E came to 5%. In the series with cellular Ras (human), this compound had a Y13-259 S-phase inhibition (percentage of cells that do not incorporate BrdU) after micro-injection; NCI-H2087 NSCLC cell line pair, Ras onc, B-Raf L596V of 77%; a Y13-259 S-phase inhibition (percentage of cells that do not incorporate BrdU) after micro-injection; SK-MEL-28 melanoma cells, Ras b, B-Raf V599E of 4%; a Y13-259 S-phase inhibition (percentage of cells that do not incorporate BrdU) after micro-injection; SK-Mel2 melanoma cells, Ras status blank, B-Raf wt of 70%; a Y13-259 S-phase inhibition (percentage of cells that do not incorporate BrdU) after micro-injection; SW480 colorectal cells, Ras K12, B-Raf wt of 57%. Moreover, in the series with cellular Ras (human), the Y13-259 S-phase inhibition (percentage of cells that do not incorporate BrdU) after micro-injection; SW620 colorectal cells, Ras onc, B-Raf wt stood at 92%; the Y13-259 S-phase inhibition (percentage of cells that do not incorporate BrdU) after micro-injection; WM-266-4/WM-115 melanoma cells, Ras b, B-Raf V599D was determined as 10%; the Y13-259 S-phase inhibition (percentage of cells that do not incorporate BrdU) after micro-injection; colo205 colorectal cells, Ras wt, B-Raf V599E stood at 3%; the Y13-259 S-phase inhibition (percentage of cells that do not incorporate BrdU) after micro-injection; colo741 colorectal cells, Ras status blank, B-Raf V599E amounted to 0%.
